Experimental data from publication PMC7756140.

How the values were obtained:
Experiment in all cases: MST
[1] = biological target: CCR5^QTY – SZ218a (E. coli)
[2] = biological target: CCR5^QTY – SZ190b (E. coli)
CCR5^QTY – SZ218a (SF9) = biological target: CCR5^QTY – SZ218a (SF9)
CCR5^QTY (SF9) = biological target: CCR5^QTY (SF9)
CCR5^QTY (E. coli) = biological target: CCR5^QTY (E. coli)
CCR5^QTY – SZ190b (SF9) = biological target: CCR5^QTY – SZ190b (SF9)
CXCR4^QTY (E. coli) = biological target: CXCR4^QTY (E. coli)
[3] = biological target: CXCR4^QTY – SZ158a (E. coli)

“CCL5 (from UniProt P13501 24-91) (ligand)” showed a Kd [1] of 87.7 nM, a Kd [2] of 55.8 nM and a Kd (CCR5^QTY – SZ218a (SF9)) of 51.7 nM. For the same substance, the Kd (CCR5^QTY (SF9)) was 41.1 nM, the Kd (CCR5^QTY (E. coli)) was 6.8 nM and the Kd (CCR5^QTY – SZ190b (SF9)) was 37.8 nM.
In the case of HIV-1 coat glycoprotein gp41-120, the Kd (CXCR4^QTY (E. coli)) is reported as 7 nM and the Kd [3] is reported as 200 nM.
